Experimental data as given in patent US12391751B2, “Antibody against advanced glycation end products and use thereof” (Bloom Technology Corporation, priority 2018, dated 2025).

What was measured:
α-SMA = assay: Endothelial-to-mesenchymal transition inhibition test, real-time PCR (Example 15); format: cell-based, human; conditions: HUVEC; antibody pre-reacted with Glycer-AGEs-BSA
Protocol: (§1) 10 μL of Glycer-AGEs-BSA (10 mg/mL) prepared in Example 1, PBS, and 90 μL of SJ-5 (10 mg/mL) or a control antibody (10 mg/mL) were added to a 1.5 mL tube (Watson). Alternatively, 90 μL of a PBS solution of control BSA (10 mg/mL) was added. These solutions were left standing at room temperature for 10 minutes. Then, a supernatant was recovered by centrifugation at 14000 rpm for 15 minutes using a centrifuge (Thermo Fisher Scientific Inc.).
(§2) HUVEC was cultured in a 10 cm dish using 10 mL of a medium for HUVEC.
(§3) The cultured HUVEC was washed with 10 mL of PBS. Then, 1 mL of trypsin-EDTA was added thereto and left standing at room temperature for 3 minutes. HUVEC thus left standing was confirmed to be detached from the dish, and trypsin-EDTA was neutralized by the addition of 10 mL of a medium for HUVEC. After the neutralization, the whole amount was transferred to a 50 mL tube and centrifuged at 1500 rpm for 3 minutes using a centrifuge.
(§4) After the centrifugation, the supernatant was discarded, and precipitated cells were resuspended by the addition of 1 mL of a medium for HUVEC. A 10 μL aliquot from the resuspension was mixed with 10 μL of Trypan Blue, and 10 μL thereof was added to a counting chamber. Then, the number of live cells was counted in Auto Cell Counter EVE. The cell suspension was diluted into 2.5×10^5 cells/mL with a medium for HUVEC and inoculated at 400 μL/well to the Matrigel prepared in (1). After the inoculation, each reaction solution prepared in (2) was added at 100 μL/well, followed by culture for 8 hours in a CO2 incubator.
(§5) Each well was washed three times with 1 mL of PBS, and Cell Recovery Solution (Corning Inc.) was added at 500 μL/well.
(§6) The cells and the Matrigel matrix were scraped off using Blue Chip (Watson), recovered into a 1.5 mL tube, and transferred to the 1.5 mL tube after rinsing of each well again with 500 μL of Cell Recovery Solution. The 1.5 mL tube was mixed by inversion five times and then left standing on ice for 1 hour to confirm that the Matrigel matrix was completely degraded. After the Matrigel matrix degradation, a supernatant was discarded by centrifugation at 800 rpm at 4° C. Precipitated cells were gently suspended in 1 mL of ice-cooled PBS and centrifuged at 800 rpm at 4° C. to discard a supernatant. Precipitated cells were gently suspended again in 1 mL of ice-cooled PBS and centrifuged at 800 rpm at 4° C.
(§7) 125 μL of CellAmp Washing Buffer attached to the kit was added to the cells precipitated by centrifugation, and mixed. […]
(§8) After the addition, real-time PCR was performed with QuantStudio™ 12K Flex real-time PCR system (Thermo Fisher Scientific Inc.) to quantify gene expression levels. […]

CD31 = assay: as above; format: cell-based, human; conditions: HUVEC; antibody pre-reacted with Glycer-AGEs-BSA
Protocol: as §1, §2, §3, §4, §5, §6, §7, §8

GAL13-BSA = biological target: T1, GAL13-BSA (Bos taurus, UniProt P02769); assay: Reactivity of novel monoclonal antibody by competitive ELISA (Example 6); format: binding
T1 construct: purchased Sigma-Aldrich Co. LLC
T1 sequence (P02769 25-607): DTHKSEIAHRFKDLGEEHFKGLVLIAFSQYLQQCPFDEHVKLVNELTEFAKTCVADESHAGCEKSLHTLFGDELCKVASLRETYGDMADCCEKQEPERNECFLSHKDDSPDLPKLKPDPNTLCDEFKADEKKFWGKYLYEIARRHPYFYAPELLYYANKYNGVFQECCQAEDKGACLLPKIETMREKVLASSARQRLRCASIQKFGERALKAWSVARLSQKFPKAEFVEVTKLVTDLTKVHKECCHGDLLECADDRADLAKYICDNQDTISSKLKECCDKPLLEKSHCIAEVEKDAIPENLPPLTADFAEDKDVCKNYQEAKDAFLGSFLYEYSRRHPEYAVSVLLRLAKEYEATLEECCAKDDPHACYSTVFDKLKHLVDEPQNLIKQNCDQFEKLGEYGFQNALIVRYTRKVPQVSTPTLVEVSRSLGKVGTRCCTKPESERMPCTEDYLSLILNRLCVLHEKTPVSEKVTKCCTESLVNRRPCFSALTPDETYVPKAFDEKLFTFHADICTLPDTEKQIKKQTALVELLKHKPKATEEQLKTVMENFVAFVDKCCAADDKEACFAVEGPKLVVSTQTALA
Protocol: GAL13-BSA was added at 100 μL/well with a concentration of 1 μg/mL and immobilized overnight at 4° C. The plate was washed three times with PBS containing 0.05% (v/v) Tween 20 (PBS-T) and then blocked with a carbonate buffer solution (pH 9.5) containing 0.5% (w/v) gelatin for 1 hour. After preparation of a POD-labeled SJ-5 antibody (0.4 μg/mL) and an anti-glyceraldehyde-derived AGEs polyclonal antibody (6 μg/mL) as a control, 10-fold serial dilution solutions (50 μL each) of GAL13-BSA or control BSA and the POD-labeled SJ-5 antibody or the anti-glyceraldehyde-derived AGEs polyclonal antibody as a control (50 μL) were added to the antigen-immobilized plate, stirred with a plate mixer, and then left standing at room temperature for 1 hour. After washing, an o-phenylenediamine solution (100 μL) prepared into 0.5 mg/mL with a 0.1 M citrate-phosphate buffer solution (pH 5.0) containing 0.02% (w/v) hydrogen peroxide was added to each well and left standing at 25° C. for 10 minutes. Then, color reaction was terminated by the addition of a 1 M sulfuric acid solution (50 μL) to each well. Then, absorbance at 490 nm was measured with a microplate reader.

antibody concentration giving similar results, lower than that of the polyclonal antibody (GAL13-BSA; competitive ELISA, versus anti-glyceraldehyde-derived AGEs polyclonal antibody): 15 times | reactivity with GAL13-BSA in the competitive method (GAL13-BSA; immobilized GAL13-BSA, POD-labeled SJ-5 0.4 μg/mL, polyclonal antibody 6 μg/mL): react favorably
B1: SJ-5: mouse monoclonal antibody raised against GAL13-MSA; heavy-chain variable region SEQ ID NO 4, light-chain variable region SEQ ID NO 8 (antibody, listed as Mus musculus, V domains shown)
VH: EVMLVESGGRLVKPGGSLKLSCAASGFTFSSYGMSWVRQTPEKRLEWVATISGGGSYTYYPDSVKGRFTISRDNVKNNLYLQMSSLRSEDTALYYCARRGAYGDYGWFAYWGQGTLVTVSA
VL: DIVLTQSPATLSVTPGDSVSLSCRASQSINNNLHWYQQKSHESPRLLIKCASQSISGIPSRFSGSGSGTDFTLSINSVETEDFGMYFCQQSNSWPLTFGAGTKLELK
suppression of α-SMA increase caused by Glycer-AGEs-BSA (α-SMA): suppressible | suppression of CD31 decrease caused by Glycer-AGEs-BSA (CD31): suppressible
